Test results: patent US20060263802A1 (CRUCELL HOLLAND B V, published 2006)

Key:
Experiment in all cases: PEPSCAN ELISA, looped peptide, antibody 10 µg/ml
[1] = target: looped/cyclic peptide … (rabies virus strain ERA)
[2] = target: looped/cyclic peptide … (rabies virus strain ERA); remark: listed apart in the source
[3] = target: looped/cyclic peptide … (rabies virus strain ERA); remark: listed apart in the source
[4] = target: looped/cyclic peptide … (rabies virus strain ERA); remark: listed apart in the source
[5] = target: looped/cyclic peptide … (rabies virus strain ERA); remark: listed apart in the source
[6] = target: looped/cyclic peptide … (rabies virus strain ERA); remark: listed apart in the source
[7] = target: looped/cyclic peptide … (rabies virus strain ERA); remark: listed apart in the source
[8] = target: looped/cyclic peptide … (rabies virus strain ERA); remark: listed apart in the source
[9] = target: looped/cyclic peptide … (rabies virus strain ERA); remark: listed apart in the source
[10] = target: looped/cyclic peptide … (rabies virus strain ERA); remark: listed apart in the source
[11] = target: looped/cyclic peptide … (rabies virus strain ERA); remark: listed apart in the source
[12] = target: looped/cyclic peptide … (rabies virus strain ERA); remark: listed apart in the source
[13] = target: looped/cyclic peptide … (rabies virus strain ERA); remark: listed apart in the source
[14] = target: looped/cyclic peptide … (rabies virus strain ERA); remark: listed apart in the source
[15] = target: looped/cyclic peptide … (rabies virus strain ERA); remark: listed apart in the source
[16] = target: looped/cyclic peptide … (rabies virus strain ERA); remark: listed apart in the source
[17] = target: looped/cyclic peptide … (rabies virus strain ERA); remark: listed apart in the source
[18] = target: looped/cyclic peptide … (rabies virus strain ERA); remark: listed apart in the source
[19] = target: looped/cyclic peptide … (rabies virus strain ERA); remark: listed apart in the source
[20] = target: looped/cyclic peptide … (rabies virus strain ERA); remark: listed apart in the source
[21] = target: looped/cyclic peptide … (rabies virus strain ERA); remark: listed apart in the source
[22] = target: looped/cyclic peptide … (rabies virus strain ERA); remark: listed apart in the source
[23] = target: looped/cyclic peptide … (rabies virus strain ERA); remark: listed apart in the source
[24] = target: looped/cyclic peptide … (rabies virus strain ERA); remark: listed apart in the source
[25] = target: looped/cyclic peptide […] (rabies virus strain ERA)
[26] = target: looped/cyclic peptide … (rabies virus strain ERA); remark: listed apart in the source
[27] = target: looped/cyclic peptide … (rabies virus strain ERA); remark: listed apart in the source
[28] = target: looped/cyclic peptide … (rabies virus strain ERA); remark: listed apart in the source
[29] = target: looped/cyclic peptide … (rabies virus strain ERA); remark: listed apart in the source
[30] = target: looped/cyclic peptide … (rabies virus strain ERA); remark: listed apart in the source
[31] = target: looped/cyclic peptide … (rabies virus strain ERA); remark: listed apart in the source
[32] = target: looped/cyclic peptide … (rabies virus strain ERA); remark: listed apart in the source
[33] = target: looped/cyclic peptide … (rabies virus strain ERA); remark: listed apart in the source
[34] = target: looped/cyclic peptide … (rabies virus strain ERA); remark: listed apart in the source
[35] = target: looped/cyclic peptide … (rabies virus strain ERA); remark: listed apart in the source
[36] = target: looped/cyclic peptide … (rabies virus strain ERA); remark: listed apart in the source
[37] = target: looped/cyclic peptide … (rabies virus strain ERA); remark: listed apart in the source
[38] = target: looped/cyclic peptide … (rabies virus strain ERA); remark: listed apart in the source
[39] = target: looped/cyclic peptide … (rabies virus strain ERA); remark: listed apart in the source
[40] = target: looped/cyclic peptide … (rabies virus strain ERA); remark: listed apart in the source
[41] = target: looped/cyclic peptide … (rabies virus strain ERA); remark: listed apart in the source
[42] = target: looped/cyclic peptide … (rabies virus strain ERA); remark: listed apart in the source
[43] = target: looped/cyclic peptide … (rabies virus strain ERA); remark: listed apart in the source
[44] = target: looped/cyclic peptide … (rabies virus strain ERA); remark: listed apart in the source
[45] = target: looped/cyclic peptide … (rabies virus strain ERA); remark: listed apart in the source
[46] = target: looped/cyclic peptide … (rabies virus strain ERA); remark: listed apart in the source
[47] = target: looped/cyclic peptide … (rabies virus strain ERA); remark: listed apart in the source
[48] = target: looped/cyclic peptide … (rabies virus strain ERA); remark: listed apart in the source
[49] = target: looped/cyclic peptide … (rabies virus strain ERA); remark: listed apart in the source
[50] = target: looped/cyclic peptide … (rabies virus strain ERA); remark: listed apart in the source
[51] = target: looped/cyclic peptide … (rabies virus strain ERA); remark: listed apart in the source
[52] = target: looped/cyclic peptide … (rabies virus strain ERA); remark: listed apart in the source
[53] = target: looped/cyclic peptide … (rabies virus strain ERA); remark: listed apart in the source
[54] = target: looped/cyclic peptide … (rabies virus strain ERA); remark: listed apart in the source
[55] = target: looped/cyclic peptide … (rabies virus strain ERA); remark: listed apart in the source
[56] = target: looped/cyclic peptide … (rabies virus strain ERA); remark: listed apart in the source
[57] = target: looped/cyclic peptide … (rabies virus strain ERA); remark: listed apart in the source
[58] = target: looped/cyclic peptide … (rabies virus strain ERA); remark: listed apart in the source
[59] = target: looped/cyclic peptide … (rabies virus strain ERA); remark: listed apart in the source
[60] = target: looped/cyclic peptide … (rabies virus strain ERA); remark: listed apart in the source
[61] = target: looped/cyclic peptide … (rabies virus strain ERA); remark: listed apart in the source
[62] = target: looped/cyclic peptide … (rabies virus strain ERA); remark: listed apart in the source
[63] = target: looped/cyclic peptide … (rabies virus strain ERA); remark: listed apart in the source
[64] = target: looped/cyclic peptide … (rabies virus strain ERA); remark: listed apart in the source
[65] = target: looped/cyclic peptide … (rabies virus strain ERA); remark: listed apart in the source
[66] = target: looped/cyclic peptide … (rabies virus strain ERA); remark: listed apart in the source
[67] = target: looped/cyclic peptide … (rabies virus strain ERA); remark: listed apart in the source
[68] = target: looped/cyclic peptide … (rabies virus strain ERA); remark: listed apart in the source
[69] = target: looped/cyclic peptide … (rabies virus strain ERA); remark: listed apart in the source
[70] = target: looped/cyclic peptide … (rabies virus strain ERA); remark: listed apart in the source
[71] = target: looped/cyclic peptide … (rabies virus strain ERA); remark: listed apart in the source
[72] = target: looped/cyclic peptide … (rabies virus strain ERA); remark: listed apart in the source
[73] = target: looped/cyclic peptide … (rabies virus strain ERA); remark: listed apart in the source
[74] = target: looped/cyclic peptide … (rabies virus strain ERA); remark: listed apart in the source
[75] = target: looped/cyclic peptide … (rabies virus strain ERA); remark: listed apart in the source

B1: human monoclonal antibody CRJB (antibody, V domains shown)
VH: QITLKETGPTLVKPTQTLTLTCTFSGFSLSTSGVGVGWIRQPPGKALEWVTLIYWDDDKRYSPSLENRVTIRKDTSKNQVALTMTNMDPLDTGTYYCAHRQHISSFPWFDSWGQGTLVTVSS
VL: SYVLTQPPSVSVAPGKTARINCGGNNIEYRSVHWYQQKSGQAPVAVIYDNSDRPSGIPERFSGSKSGNTATLTISRVEAGDEADYYCQVWDISSDVVFGGGTKLTVLG
OD value [1]: 60 OD
OD value [2]: 72 OD
OD value [3]: 49 OD
OD value [4]: 83 OD
OD value [5]: 89 OD
OD value [6]: 57 OD
OD value [7]: 92 OD
OD value [8]: 70 OD
OD value [9]: 86 OD
OD value [10]: 112 OD
OD value [11]: 65 OD
OD value [12]: 69 OD
OD value [13]: 69 OD
OD value [14]: 93 OD
OD value [15]: 55 OD
OD value [16]: 111 OD
OD value [17]: 65 OD
OD value [18]: 71 OD
OD value [19]: 46 OD
OD value [20]: 98 OD
OD value [21]: 33 OD
OD value [22]: 90 OD
OD value [23]: 69 OD
OD value [24]: 74 OD
OD value [25]: 138 OD
OD value [26]: 74 OD
OD value [27]: 82 OD
OD value [28]: 79 OD
OD value [29]: 111 OD
OD value [30]: 58 OD
OD value [31]: 86 OD
OD value [32]: 64 OD
OD value [33]: 60 OD
OD value [34]: 78 OD
OD value [35]: 75 OD
OD value [36]: 84 OD
OD value [37]: 85 OD
OD value [38]: 86 OD
OD value [39]: 71 OD
OD value [40]: 101 OD
OD value [41]: 45 OD
OD value [42]: 73 OD
OD value [43]: 72 OD
OD value [44]: 73 OD
OD value [45]: 118 OD
OD value [46]: 71 OD
OD value [47]: 83 OD
OD value [48]: 90 OD
OD value [49]: 68 OD
OD value [50]: 54 OD
OD value [51]: 63 OD
OD value [52]: 80 OD
OD value [53]: 75 OD
OD value [54]: 64 OD
OD value [55]: 93 OD
OD value [56]: 49 OD
OD value [57]: 74 OD
OD value [58]: 85 OD
OD value [59]: 99 OD
OD value [60]: 99 OD
OD value [61]: 88 OD
OD value [62]: 80 OD
OD value [63]: 90 OD
OD value [64]: 70 OD
OD value [65]: 61 OD
OD value [66]: 71 OD
OD value [67]: 79 OD
OD value [68]: 73 OD
OD value [69]: 92 OD
OD value [70]: 65 OD
OD value [71]: 85 OD
OD value [72]: 51 OD
OD value [73]: 83 OD
OD value [74]: 91 OD
OD value [75]: 72 OD
